Consider 14 molecules from patent US20250320278A1 (LA JOLLA INSTITUTE FOR IMMUNOLOGY, published 2025).

Substitutions are numbered along the chain they refer to.

The labels stand for the following.
B1: NP3-B4 (antibody, V domains shown)
VH: EVQLVESGGGLVQPGGSVKLSCLASGFTFSDYYMSWVRQSPEKGLEWVAEIRLESDNYATHYAESVKGKFTISRDDSKSRLYLKMNSLRGEDTGIYYCAFDVYYGGAMDYWGQGTTVTVSS
VL: DIQMTQSPSIMSASPGEKVTMTCSASSSVSYMHWYQQKSSTSPKLWIYDTSELASGVPGRFSGSRSGNSYSLTISSMEAEDVATYYCFQGSGYPLTFGGGTKLELK
B2: NP3-G9 (antibody, V domains shown)
VH: EVQLQQSGAELVRPGSSVKISCKASGYAFSNYWMNWVRQRPGQGLEWIGQIYPGNDDTYYNGKFKGKVTLTADKSSTTAYIQLISLTSEDSAVYFCARRPLFYAMDYWGQGTSVTVSS
VL: DIQMTQSPSSLAVSLGQRASISCKASQSVDYDGESYMNWYQQKPGQPPKVLIYAASNLESGIPARFSGSGAGTDFTLSIHPVEEEDAATYYCQQSYEDPWTFGGGTKLELK
B3: NP3-A7 (antibody, V domains shown)
VH: QIQLVQSGAELVKPGASVKLSCTASGFNIKDTYIHWVRQRPEQGLEWIGRIDPANGDTKYDPKFQDKATLIADTSSNTAYLQLGSLTSEDTAVYYCARYRIYYFDYWGQGTTLTVSS
VL: DIQMTQSPASVPVTPGESVSISCRSSKSLLHSNGNTYVYWFLQRPGQSPRLLIYRMSNLASGVPDRFSGSGSGTAITLRISRVEAEDVGVYSCMQHLEYPLTFGAGTKLEIK
B4: NP3-B12 (antibody, V domains shown)
VH: EVQLQQSGAELMKPGASVKISCKATGYTFSSYWIEWVKQRPGHGLEWIGEFFPGSGNTNYNEKFKGKATFTADTSSNTAYMQLSSLTSEDSAVYYCARRGLYDGYYVRYFDVWGAGTTVTVSS
VL: DIVLTQSPASLAVSLGQRATISCKASQSVDYDGYSYMNWYQQKPGQPPKLLIYAASNLESGIPARFSGSGSGTDFTLNIHPVEEEDAATYYCQQSNADPFTFGGGTKLELK
B5: NP3-F7 (antibody, V domains shown)
VH: B2 VH with N31S, R38K, D56G, K65M, V68A, S75F, T77S, I81M, I84S, S85G
VL: B4 VL with A9G, Y34D, A64V, A97E, F100W
B6: NP3-E6 (antibody, V domains shown)
VH: EVQLQQSGAELMRPGASVKISCKATGYTFSSYWIEWVKQRPGHGLEWIGEILPGSDNTNYNEKFKGKATLTADTSSNTAYMHLSSLTSEDSAVYSCARRLFLRRYFDVWGAGTTVTVSS
VL: B4 VL with V13L, Y34D, Y53S, S67G, A97E, L110I
B7: NP3-G12 (antibody, V domains shown)
VH: B6 VH with V2A, L11P, R13K, A24T, S30T, Y32D, K38Q, D56G, K63N, S95Y
VL: B4 VL with L4M, Y34D, S67G, S69G, A97E
B8: NP3-G8 (antibody, V domains shown)
VH: QVQLQQSGPELKKPGETVKISCKASGYTFTDYSMHWVKQAPGKGLKWLGWKNTESGEETFADDFKGRFDFSLETSASTVYLQIKNLKNEDTAAYFCARSGDIYAMDYWGQGTTVTVSS
VL: B4 VL with D1E, I2N, Y34G, N57T, R65G, A97E, F100W, L110I
B9: NP3-C9 (antibody, V domains shown)
VH: QIQLVQSGPELKKPGETVKISCKASGYTFTDYSIHWVKQAPGKDLKWVGWINTETGEPTYADDFEGRFAFSLETSASTAFLQINNLKNEDTATYFCSRGAATGFWGQGTTLTVSS
VL: B4 VL with Y34D, A54V, E84D, S95T, A97E, F100L, G104A
B10: NP3-C11 (antibody, V domains shown)
VH: EVQLVESGGGLVRPGGSLKLSCAASGFTFSDYYMYWVRQTPEKRLEWVATISDGGGYNYYPDSVKGRFTVSRDNAKNNLYLQMSSLKSEDTAMYYCVRDKYDGWGSDFDVWGAGTTVTVSS
VL: DIVMTQSPSLMSTSLGERVTMTCTANSSVSSNYMHWYQQKPGSSPKLWIYSTSNLASGVPARFSGSGSGTSYSLTISNMEAEDAATYYCHQFHRSPRTFGGGTKLEIK
B11: NP3-F4 (antibody, V domains shown)
VH: EVQLVESGPELKKPGETVKIPCKTSGYTFTNYGMNWVKQAPGKGLKWMGWINTNTGEPTYAEDFKGRFAFSLETSASTAYLQISNLKNEDTATFFCARGSIYDGYYEGLYYWGQGTTLTVSS
VL: DIKMTQSPSSLSVSVGETVTITCRASENIYSNLAWYQQKQGKSPQLLVSAATNLADNVPSRFSGSGSGTQYSLKINSLQSEDFGSYYCQHFWGFPRTFGGGTKLEIK
B12: NP3-H9 (antibody, V domains shown)
VH: QIQLVQSGPELKKPGETVKISCKASGYTFTDYPIHWVKQAPGKGLKWMGWINAETGEPTYADDFKGRFVVSLETSASTAYLQINNLKNEDTATFFCARHYRYDEAWFVYWGQGTLVTVSA
VL: B11 VL with I2V, K3Q, M4I, S49Y, N53D, N57G, Q70H, Y86F, F94T, R96W
B13: NP3-F10 (antibody, V domains shown)
VH: EVQLQQSGAELVEPGAPVKLSCKAFGYTFTSYWMNWVKQRPGRGLEWIGRIDPSDSETHYNQNFKDKAALTVDRSSSTAYIHLSSLTSEDSAVYYCAREVTTATKGVFSWLAYWGQGTLVTVSA
VL: DIQMTQTTSSLSASLGDRVTISCSASQDISDYLNWYQQKPDGTIKLLIYYTSSLHSGAPSRFSGSGSGTDYSLTISNLEPEDIATYYCQQYSKLPWTFGGGTKLELK
B14: NP3-H12 (antibody, V domains shown)
VH: QIQLVQSGPELKKPGETVKISCKASGYMFTNYGMNWVKQAPGKGLKWMGWINTYTGEPTYADDFKGRFAFSLDISGSTAYLQINNLKNEDMATYFCARTREIWGNVDFPYWGQGTLVTVSA
VL: DILMTQAAPSLSVSVGETVTITCRASENIYSDLAWYQHKEGKSPQLLVYAATDLADGVPSRFSGSGSGTQYSLKINSLQSEDFGNYYCQHFWGTPWTFGGGTKLEIK

One test addresses T1, SARS-CoV-2 N protein RNA-binding domain (SARS-CoV-2, UniProt P0DTC9 44-180). Kind of test: Octet, KD (nM) heat map. (In BLI a coated tip is dipped into the sample, and binding shifts an interference pattern.)
Take B1: the binding result was “no binding”.
The same measure, in the same setting: in the case of B2 it was “no binding”.
The same measure, in the same setting: with B3 the entry was “no binding”; with B4, “no binding”; with B5, “no binding”.
On the same count and under the same terms, in the case of B6 it was “no binding”; in that of B7, “no binding”.
Consider B8, for which the binding result was “no binding”.
The same measure, in the same setting: with B9 the entry was “no binding”.

The target in the next test is T2, SARS-CoV-2 N protein oligomerization domain (SARS-CoV-2, UniProt P0DTC9 247-364).
T2 construct: also called N olig. domain; OD
Kind of test: Octet, KD (nM) heat map.
For the molecule B10, the binding result was “no binding”.
On to B11, for which the binding result is reported as “no binding”.
Still for that read-out and setting: in the case of B12 it was “no binding”; in that of B3, “no binding”; in that of B9, “no binding”.
As to B13, the binding result is recorded as “no binding”.
On the same count and under the same terms, in the case of B14 it was “no binding”.

For another test, the target named is T3, SARS-CoV-2 N protein, full-length (SARS-CoV-2, UniProt P0DTC9 1-419).
T3 construct: mature; also called SARS-CoV-2 nucleoprotein
Nature of the test: Octet, KD (nM) heat map.
Take B10: the binding result was “binds”.

Another test deals with T1, SARS-CoV-2 N protein RNA-binding domain. Kind of test: Octet (BLI) kinetics.
Usually Kd stands for a measure of binding affinity in units of concentration. The low end stands for a tighter complex, the high end for a looser complex. B11 registered a dissociation constant (Kd) of 5.57 nM.
Regarding B12, the affinity, expressed as Kd, was 3.16 nM.
The same measure, in the same setting: in the case of B13 it was 5.6 nM.
Molecule B14 had a Kd of 1.89 nM.

The target of another test is T3, SARS-CoV-2 N protein, full-length. Nature of the test: Octet (BLI) kinetics.
For the molecule B11, the Kd is 2.84 nM.
Still for that read-out and setting: in the case of B12 it was 5.2 nM; in that of B13, 2.53 nM; in that of B14, 0.72 nM.

In another test the target is T2, SARS-CoV-2 N protein oligomerization …. Kind of test: Octet (BLI) kinetics.
In turn, B4 showed an equilibrium dissociation constant (Kd) of 0.78 nM.
The molecule B8 displayed a dissociation constant (Kd) of 1.05 nM.

In another test the target is T3, SARS-CoV-2 N protein, full-length. Kind of test: Octet (BLI) kinetics. The source holds these as a separate data set.
On to B3, for which the Kd worked out at 2.75 nM.
In turn, B4 gave a Kd of 1 nM.
The same measure, in the same setting: with B6 the figure was 0.48 nM; with B8, 2.54 nM; with B9, 0.75 nM.
